Results as given in PMC11470957, “Principles of paralog-specific targeted protein degradation engaging the C-degron E3 KLHDC2” (Nature Communications, 2024).

Molecular target: KLHDC2 substrate binding domain (KLHDC2^SBD, 15-361) (UniProt Q9Y2U9)
Sequence (Q9Y2U9 15-361): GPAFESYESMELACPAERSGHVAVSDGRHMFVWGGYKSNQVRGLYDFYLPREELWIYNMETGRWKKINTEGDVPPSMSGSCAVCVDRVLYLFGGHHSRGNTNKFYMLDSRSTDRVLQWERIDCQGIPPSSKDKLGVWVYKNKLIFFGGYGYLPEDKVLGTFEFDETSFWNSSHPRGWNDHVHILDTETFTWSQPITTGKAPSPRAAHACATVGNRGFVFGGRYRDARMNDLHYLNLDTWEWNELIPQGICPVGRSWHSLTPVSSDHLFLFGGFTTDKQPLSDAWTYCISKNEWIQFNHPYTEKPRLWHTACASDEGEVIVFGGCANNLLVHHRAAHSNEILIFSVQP

- improvement of the IC50 of inhibition of KLHDC2 di-Gly substrate ubiquitylation, SJ46421-BRD3^BD2 against SJ46421 alone (orders-of-magnitude): 2
Substance: BRD3^BD2 (second bromodomain of BRD3, residues 306-416) (from UniProt Q15059 306-416) (domain or fragment)
